{
  "source": "paper doi:10.1101/2025.07.25.666786",
  "key": {"[1]": {"target": "CrAPE1 C128S mutant, recombinant soluble region of the DUF2854 of APE1 from Chlamydomonas reinhardtii (Chlamydomonas reinhardtii)", "assay": "MST"}, "[2]": {"target": "Plastid Copper Chaperone 1 (PCC1) from Chlamydomonas reinhardtii, recombinant, produced in the presence of Cu (Chlamydomonas reinhardtii)"}, "[3]": {"target": "CrAPE1 C128S mutant, recombinant soluble region of the DUF2854 of APE1 from Chlamydomonas reinhardtii (Chlamydomonas reinhardtii)", "assay": "SEC-MALS"}},
  "data": [
    {"substance": "Plastid Copper Chaperone 1 (PCC1) from Chlamydomonas reinhardtii, recombinant, produced in the presence of Cu (natural protein)", "values": [
      {"measurement": "Kd", "setting": "[1]", "value": 38.6, "unit": "nM"},
      {"measurement": "stoichiometry N", "setting": "[2]", "value": 2}
    ]},
    {"substance": "CrAPE1 C128S mutant, recombinant soluble region of the DUF2854 of APE1 from Chlamydomonas reinhardtii (domain or fragment)", "values": [
      {"measurement": "stoichiometry N", "setting": "[3]", "value": 2}
    ]}
  ]
}
